Laboratory results from article PMC3519819.

Target: IscS fused with the bait protein (pBT-IscS, pJTU3618) (E. coli), P0A6B7
Assay: two-hybrid; BacterioMatch II bacterial two-hybrid; IscS on pBT (bait), Dpt proteins on pTRG (target); reporter strain E. coli XL1-Blue MRF' Kan; colonies counted on Selective Screening Medium with 5 mM 3-AT against nonselective medium, 24 h at 37°C
Conditions: remark: other sources report otherwise

Chain of IscS fused with the bait protein (pBT-IscS, pJTU3618) (E. coli), P0A6B7 (P0A6B7 whole entry, the tested form may be a part): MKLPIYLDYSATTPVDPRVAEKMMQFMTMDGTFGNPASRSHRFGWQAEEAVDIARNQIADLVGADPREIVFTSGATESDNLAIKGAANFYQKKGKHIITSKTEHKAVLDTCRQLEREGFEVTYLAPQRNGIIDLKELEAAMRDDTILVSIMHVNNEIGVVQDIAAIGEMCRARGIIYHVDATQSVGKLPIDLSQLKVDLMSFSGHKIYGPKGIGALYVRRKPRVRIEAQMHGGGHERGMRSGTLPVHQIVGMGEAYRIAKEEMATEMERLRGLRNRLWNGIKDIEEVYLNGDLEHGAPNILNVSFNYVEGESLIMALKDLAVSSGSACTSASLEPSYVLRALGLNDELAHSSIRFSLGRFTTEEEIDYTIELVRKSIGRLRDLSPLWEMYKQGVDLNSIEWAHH

B1: DptC fused with the target protein (pTRG-DptC, pJTU3610), E2D677 1-544 (natural protein)
chain: MSKLVQAYDLAEYEDFINQEQFAGRPLAEYVAEVQRIYCADKRPWVIGYSGGKDSSAVITLVYLALLGLPPEMRSKDVFIVSSDTLVETPVVVDLIKKTMLQIEAGAKRNGLPITQHAVTPKTNETFWVNLLGKGYPAPTRSFRWCTERMKINPVSDFIKDKVSQFDEVIVVLGSRSSESASRAQVIAKHKIDGSRLARHTTLANAFIYTPIDTWDVEDVWKLLRGAFRYAPEDIDEWESPWGGNNRPLWTLYMDSSAQGECPLVIDESTPSCGNSRFGCWTCTVVTKDKAMESLIKNGEEWMSPLLKYRDLLAFTTDPANKDTYRNYKRRTGKVSYQYAKDGEDRSAERKHVPGPYWLKYRQQWLKDLLEIERDLNAQGHTITLITQPELHAIRQEWLKDPNEPDWHDTLPEIYREVYQQDLNWVVDDQSRFDASDADLLAQITQGFDVVPEMVMKLIELETSMEGLSRRQGIFDKLGTILKQDWGSLEEIQQQQATLQKRNDRDIHQDEVEKLEAELQTLQRRIIDAGESSVLIDEENERAH
surviving cells on 3AT: 2%
